Publication PMC11878792

Target: wt human lysyl-tRNA synthetase (h-LysRS, cytosolic) (human) (UniProt Q15046)
Assay: EMSA
Conditions: 1 mM Mg2+, Kd values printed only in Fig. 4C, EMSA: 20 mM HEPES pH 7.4, 60 mM NaCl, 10 mM KCl, 1 mM MgCl2, 400 uM DTT, 8% glycerol, room temperature 30 min, 37.5 nM tRNA, 0-5 uM LysRS, Hill fit, SYBR Gold …

Chain of wt human lysyl-tRNA synthetase (h-LysRS, cytosolic) (human) (Q15046 whole entry): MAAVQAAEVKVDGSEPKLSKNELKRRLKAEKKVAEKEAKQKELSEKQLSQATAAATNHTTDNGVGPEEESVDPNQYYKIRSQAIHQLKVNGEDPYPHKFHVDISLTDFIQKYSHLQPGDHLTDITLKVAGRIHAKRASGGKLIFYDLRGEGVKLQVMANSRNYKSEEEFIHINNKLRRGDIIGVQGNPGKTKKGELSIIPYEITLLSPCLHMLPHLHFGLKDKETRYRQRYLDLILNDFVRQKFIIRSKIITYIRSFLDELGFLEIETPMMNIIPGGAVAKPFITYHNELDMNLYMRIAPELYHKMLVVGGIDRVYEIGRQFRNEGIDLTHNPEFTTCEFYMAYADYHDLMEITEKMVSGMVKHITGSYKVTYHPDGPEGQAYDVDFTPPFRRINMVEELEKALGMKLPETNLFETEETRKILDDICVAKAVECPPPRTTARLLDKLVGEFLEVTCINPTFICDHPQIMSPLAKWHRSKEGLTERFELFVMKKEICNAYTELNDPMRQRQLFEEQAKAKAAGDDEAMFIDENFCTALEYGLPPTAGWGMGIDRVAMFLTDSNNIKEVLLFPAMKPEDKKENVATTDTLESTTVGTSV

Row | Substance | binding signal (fold higher affinity than IVT tRNALys3) (native modifications, named: m2G10, D20, S34 (mcm5s2U), R37 (ms2t6A), D47, psi55, 9 types, 14 modified nucleotides modeled) | binding signal (scale: fold lower affinity than modified tRNALys3)
1 | cellular fully modified tRNALys3 | 2.5 | –
2 | IVT unmodified tRNALys3 | – | 2.5
